Experimental data as given in patent publication US20260265370A1 (SUZHOU TRANSCENTA THERAPEUTICS, published 2026).

Target: T1, human PD-L1 (human, UniProt Q9NZQ7 19-290)
T1 construct: whole, on cells; Endogenous protein in FFPE tumour sections; also called PD-ligand 1
Assay: IHC on FFPE GC-02-0007 PDX tumour sections, Leica BOND III, membrane staining
Experimental: PD-L1 expression status was also assessed to better understand the immune modulation pre- and post Hu18B10-HaLa treatment in GC-02-0007 PDX tumor samples. Immunohistochemistry (IHC) was performed on these 4% neutral buffered formalin fixed paraffin-embedded (FFPE) tumor sections using commercially available Rabbit anti-human PD-L1 monoclonal antibodies (SP263). After deparaffinization and rehydration, all slides were proceeded to antigen retrieval in BOND Epitope Retrieval Solution 2 (Leica, AR9640) for 30 minutes at 97-99° C. Subsequently quenched, blocked with peroxidase inhibitor and incubated with appropriately diluted SP263 (0.2 ug/mL) antibodies for 30 minutes at room temperature (RT). Antibody binding was visualized with BOND Polymer Detection (Leica, DS9800) for 8 minutes on auto-staining Leica BOND III. Sections were finally counterstained with Hematoxylin and mounted with permanent mounting medium.

T1 sequence (Q9NZQ7 19-290): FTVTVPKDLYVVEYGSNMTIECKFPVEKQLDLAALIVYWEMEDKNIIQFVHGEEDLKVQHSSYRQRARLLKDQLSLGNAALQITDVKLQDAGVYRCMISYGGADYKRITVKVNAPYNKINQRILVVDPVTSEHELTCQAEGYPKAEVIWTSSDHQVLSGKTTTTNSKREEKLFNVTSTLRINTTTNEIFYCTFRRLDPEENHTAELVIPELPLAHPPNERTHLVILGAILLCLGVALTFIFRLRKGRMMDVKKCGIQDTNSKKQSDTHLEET

- binding result: binds
B1: Rabbit anti-human PD-L1 monoclonal antibody SP263 (antibody, V domains shown)
VH: QSLEESGGRLVTPGTPLTLTCTASGFSLSNHAISWVRQAPGKGLEWIGTINSDTHTYYATWPKGRFTISKTSSTTVDLKMTSPTTEDTATYFCARRIFSSSNIWGPGTLVTVSS
VL: AIVMTQTSSPVSAVVGGTVAINCQASQSIYNNNWLSWFQQKPGQPPKLLIYLASTLASGVPSRFKGSGSGTQFTLTISDVVCDDAATYYCIGGESSNNDGIAFGGGTEVVVK
notes: Commercially available rabbit monoclonal antibody; also called anti-PD-L1 diagnostic antibody SP263
